This note sets out measurements from publication PMC4285296, “A complex gene locus enables xyloglucan utilization in the model saprophyte Cellvibrio japonicus” (Molecular Microbiology, 2014).

As a reminder, the Km is the concentration of substrate that gives half-maximal velocity. What is called Kd is the free concentration of one partner at which half of the binding sites on the other are occupied at equilibrium, for simple one-to-one binding. For orientation: kcat means the maximal rate divided by the concentration of active sites. The kcat/Km is the turnover number divided by the Michaelis constant.

One data set addresses T1, CjAfc95A (Cellvibrio japonicus, UniProt B3PBE3).
T1 construct: gene afc95A; full-length (no signal peptide predicted); pET-DEST42 construct with C-terminal tag; recombinant in E. coli BL21(DE3), IMAC purified
T1 sequence (B3PBE3 1-782): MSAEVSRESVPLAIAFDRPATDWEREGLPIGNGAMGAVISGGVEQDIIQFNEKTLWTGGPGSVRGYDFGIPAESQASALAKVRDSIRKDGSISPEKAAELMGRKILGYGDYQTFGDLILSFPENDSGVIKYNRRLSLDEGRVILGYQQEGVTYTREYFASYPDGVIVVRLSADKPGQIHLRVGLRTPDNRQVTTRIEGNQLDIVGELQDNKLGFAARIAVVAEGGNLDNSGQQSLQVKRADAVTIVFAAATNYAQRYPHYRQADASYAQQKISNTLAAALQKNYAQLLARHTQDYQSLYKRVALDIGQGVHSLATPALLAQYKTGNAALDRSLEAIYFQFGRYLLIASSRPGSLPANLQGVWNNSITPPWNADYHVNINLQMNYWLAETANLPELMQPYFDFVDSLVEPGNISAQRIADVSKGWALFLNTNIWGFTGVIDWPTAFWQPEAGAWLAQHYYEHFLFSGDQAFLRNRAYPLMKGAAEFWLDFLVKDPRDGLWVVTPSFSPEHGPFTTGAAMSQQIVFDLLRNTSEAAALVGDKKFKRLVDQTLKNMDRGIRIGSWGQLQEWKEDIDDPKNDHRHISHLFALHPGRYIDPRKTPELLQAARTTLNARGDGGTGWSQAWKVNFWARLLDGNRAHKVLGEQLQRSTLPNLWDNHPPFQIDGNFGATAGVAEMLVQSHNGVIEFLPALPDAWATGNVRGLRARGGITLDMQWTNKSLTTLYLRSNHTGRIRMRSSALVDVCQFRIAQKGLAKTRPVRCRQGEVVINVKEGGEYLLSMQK
Nature of the data set: HPAEC-PAD, fucose release. The format is biochemical. To be noted: 25 °C; pH optimum 6.5; apparent value, substrate preparation was a two-component mixture of XLFG and XXFG. The source says:
HPAEC-PAD, fucose release on CjAfc95A

The target of the next data set is T2, CjBgl35A (Cellvibrio japonicus, UniProt B3PBE0).
T2 construct: gene bgl35A; native signal peptide (residues 1-36) excluded; recombinant in E. coli; pET-DEST42 construct with C-terminal tag, or modified pET28a construct with N-terminal His6 tag (crystals); model residues 37-575
Nature of the data set: isothermal titration calorimetry. The format is binding. (In general: ITC needs no label: the signal is the heat of the interaction.)

Substrate in the data set “purified protein”: O=[N+]([O-])c1ccc(O[C@@H]2O[C@H](CO)[C@H](O)[C@H](O)[C@H]2O)cc1
The data set is described as follows: purified protein. The conditions noted are these: 25 °C, pH optimum 5.5 (acetate).

Substrate in data set [1]: C[C@@H]1O[C@@H](Oc2ccc([N+](=O)[O-])cc2Cl)[C@@H](O)[C@H](O)[C@@H]1O
The data set is described as follows: continuous chromogenic assay, 2-chloro-4-nitrophenolate release. The format is biochemical, Cellvibrio japonicus. To be noted: 25 °C, pH optimum 6.5 (citrate). An excerpt:
continuous chromogenic assay, 2-chloro-4-nitrophenolate release on CjAfc95A

As for `C[C@@H]1O[C@@H](O[C@H]2[C@H](O[C@H]3[C@@H](OC[C@H]4O[C@@H](O[C@H]5[C@H](O)[C@@H](O)C(O)O[C@@H]5CO)[C@H](O)[C@@H](O)[C@@H]4O[C@@H]4O[C@H](CO[C@H]5OC[C@@H](O)[C@H](O)[C@H]5O[C@@H]5O[C@H](CO)[C@H](O)[C@H](O)[C@H]5O)[C@@H](O[C@@H]5O[C@H](CO[C@H]6OC[C@@H](O)[C@H](O)[C@H]6O)[C@@H](O)[C@H](O)[C@H]5O)[C@H](O)[C@H]4O)OC[C@@H](O)[C@@H]3O)O[C@H](CO)[C@H](O)[C@@H]2O)[C@@H](O)[C@H](O)[C@@H]1O` (some centres unmarked) [XLFG], on CjAfc95A, the Km is 210 ± 17 µM.

The molecule `OC[C@H]1NC[C@H](O)[C@@H](O)[C@H]1O` [1-deoxygalactonojirimycin, 1,5-Dideoxy-1,5-imino-D-galactitol] showed a Kd at CjBgl35A of 485 ± 42 nM.

B1: CjBgl35A (Cellvibrio japonicus Ueda107) (protein)
chain: APLPELLSNNGKHALMVDGAPYIILGSQTNNSSNYPDALKDVWPSMEKMGANTLSIPVAWEQIEPVEGQFDFSFVDVLLKEARQRKVRLVLLWFATWKNNAPHYAPAWVKLDNARFPRVVKEDGDTLNSLSPLGQNTLAADKKAFVELMKYLAKRDKDHTVIMVQVQNEVGTYGAVRDYSPMAQAVFNAAVPDDLIQKLQLKPGTWSQVFGRDADEFFHAYQIARYCDEVTVAGKAIKNLPMYVNVALRNPFNPGLPGQYSSGGGTDNVLHIWKAAAPNIDLIAPDIYFRDYKTVSKVLELYTRPDNALFVAEIGNDQPFARYLFPTLGKGGIGFSPFGMDDTDYTNYPLGAKVYNDETIEQFAQVYRLVNPMMREWARLSYQGQVWGVAEPLDSTTETQKIWNAEATPEEKEQHKKDRASALTQQLDLGLWDAEVTYGRPMFWVTPPEGNTPAAGGALIAQLDDNEYLVTAYKARVEFKPSQELAGKKFMIERVEEGRFEKGKWVMERVWNGDQTDWGLNFTDRPHLLRVKMASYSVQ
B1: in “purified protein”, the Km was found to be 810 ± 50 µM, the kcat was 10.1 s⁻¹ and the kcat/Km amounted to 12500 M⁻¹ s⁻¹.

B2: CjAfc95A (Cellvibrio japonicus Ueda107) (protein)
chain: MSAEVSRESVPLAIAFDRPATDWEREGLPIGNGAMGAVISGGVEQDIIQFNEKTLWTGGPGSVRGYDFGIPAESQASALAKVRDSIRKDGSISPEKAAELMGRKILGYGDYQTFGDLILSFPENDSGVIKYNRRLSLDEGRVILGYQQEGVTYTREYFASYPDGVIVVRLSADKPGQIHLRVGLRTPDNRQVTTRIEGNQLDIVGELQDNKLGFAARIAVVAEGGNLDNSGQQSLQVKRADAVTIVFAAATNYAQRYPHYRQADASYAQQKISNTLAAALQKNYAQLLARHTQDYQSLYKRVALDIGQGVHSLATPALLAQYKTGNAALDRSLEAIYFQFGRYLLIASSRPGSLPANLQGVWNNSITPPWNADYHVNINLQMNYWLAETANLPELMQPYFDFVDSLVEPGNISAQRIADVSKGWALFLNTNIWGFTGVIDWPTAFWQPEAGAWLAQHYYEHFLFSGDQAFLRNRAYPLMKGAAEFWLDFLVKDPRDGLWVVTPSFSPEHGPFTTGAAMSQQIVFDLLRNTSEAAALVGDKKFKRLVDQTLKNMDRGIRIGSWGQLQEWKEDIDDPKNDHRHISHLFALHPGRYIDPRKTPELLQAARTTLNARGDGGTGWSQAWKVNFWARLLDGNRAHKVLGEQLQRSTLPNLWDNHPPFQIDGNFGATAGVAEMLVQSHNGVIEFLPALPDAWATGNVRGLRARGGITLDMQWTNKSLTTLYLRSNHTGRIRMRSSALVDVCQFRIAQKGLAKTRPVRCRQGEVVINVKEGGEYLLSMQK
notes: full-length (no signal peptide predicted); pET-DEST42 construct with C-terminal tag; recombinant in E. coli BL21(DE3), IMAC purified
Regarding B2, in data set [1], the Km is 2100 ± 200 µM, the kcat was 26.5 ± 1.1 s⁻¹ and the kcat/Km was determined as 12900 M⁻¹ s⁻¹.
